Measured values taken from publication PMC12583452, “MCM5 UFMylation regulates replication origin firing and fork progression” (The EMBO Journal, 2025).

T1: His-UFL1 (UniProt O94874 1-794)
T1 construct: UFL1; construct pet28a-UFL1; also called pet28a-UFL1; source: E. coli BL21, purified (Ni-NTA agarose)
T1 sequence (looked up): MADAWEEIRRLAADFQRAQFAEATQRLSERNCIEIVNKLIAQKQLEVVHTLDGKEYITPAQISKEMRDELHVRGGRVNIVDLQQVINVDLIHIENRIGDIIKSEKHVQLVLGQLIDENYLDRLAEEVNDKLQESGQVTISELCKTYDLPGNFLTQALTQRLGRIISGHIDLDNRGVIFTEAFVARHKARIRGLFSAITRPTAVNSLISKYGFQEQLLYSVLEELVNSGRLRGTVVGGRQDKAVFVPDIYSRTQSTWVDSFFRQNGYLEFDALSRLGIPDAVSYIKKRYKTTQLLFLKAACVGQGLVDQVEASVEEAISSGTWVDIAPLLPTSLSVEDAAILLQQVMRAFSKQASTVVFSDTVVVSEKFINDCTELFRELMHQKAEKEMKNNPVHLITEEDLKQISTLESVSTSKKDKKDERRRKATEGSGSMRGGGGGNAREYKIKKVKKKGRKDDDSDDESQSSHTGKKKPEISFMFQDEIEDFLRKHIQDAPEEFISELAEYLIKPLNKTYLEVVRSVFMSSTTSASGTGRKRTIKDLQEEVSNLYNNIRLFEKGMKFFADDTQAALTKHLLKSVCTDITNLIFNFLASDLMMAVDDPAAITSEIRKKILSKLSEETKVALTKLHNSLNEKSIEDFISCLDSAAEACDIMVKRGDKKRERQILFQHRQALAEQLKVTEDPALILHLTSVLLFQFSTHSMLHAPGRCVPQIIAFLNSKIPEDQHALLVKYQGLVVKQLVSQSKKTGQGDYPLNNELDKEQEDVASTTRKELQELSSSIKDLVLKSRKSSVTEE

T2: FLAG-MCM5 (K583R), expressed in HeLa cells (human, UniProt P33992 1-734, K583R)
T2 construct: human MCM5, full-length cDNA in a pcDNA3.0 3XFLAG vector, point mutation K583R (UFMylation-resistant); also called KR; Lys583Arg; source: HeLa, transfected; in fixed cells (PLA) and in the chromatin fraction (IP)
T2 sequence (looked up): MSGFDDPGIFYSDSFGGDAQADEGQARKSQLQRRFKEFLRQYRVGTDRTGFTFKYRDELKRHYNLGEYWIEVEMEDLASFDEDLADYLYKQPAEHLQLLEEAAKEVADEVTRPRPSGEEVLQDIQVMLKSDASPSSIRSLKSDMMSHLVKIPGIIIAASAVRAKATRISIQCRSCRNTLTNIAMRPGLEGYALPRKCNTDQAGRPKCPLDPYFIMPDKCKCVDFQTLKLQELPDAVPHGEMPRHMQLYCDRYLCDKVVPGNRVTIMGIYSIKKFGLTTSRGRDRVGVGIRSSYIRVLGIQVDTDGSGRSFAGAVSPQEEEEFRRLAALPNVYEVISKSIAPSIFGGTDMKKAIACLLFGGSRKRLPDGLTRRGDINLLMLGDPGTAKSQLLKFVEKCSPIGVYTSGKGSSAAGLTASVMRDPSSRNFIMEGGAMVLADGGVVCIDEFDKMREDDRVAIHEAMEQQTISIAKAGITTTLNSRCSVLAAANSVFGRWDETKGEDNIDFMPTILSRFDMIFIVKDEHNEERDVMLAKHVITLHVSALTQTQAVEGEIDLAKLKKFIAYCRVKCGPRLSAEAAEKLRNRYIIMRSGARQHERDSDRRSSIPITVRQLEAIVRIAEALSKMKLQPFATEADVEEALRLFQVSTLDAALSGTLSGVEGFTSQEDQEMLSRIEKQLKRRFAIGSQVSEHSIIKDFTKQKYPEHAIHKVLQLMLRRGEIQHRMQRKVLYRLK


Assays:
His-UFL1 = biological target: T1, His-UFL1; experiment: pull-down; GST pull-down in vitro with purified GST-MCM5 and His-UFL1; bead-associated proteins analysed by western blot; conditions: both partners purified
[1] = biological target: T2, FLAG-MCM5 (K583R), expressed in HeLa …; experiment: proximity ligation; HeLa cells transfected with FLAG-VEC, FLAG-MCM5 (WT) or FLAG-MCM5 (K583R), 1 h after release from double-thymidine block; PLA with CDC45; conditions: partners not purified

binding result (His-UFL1)	fold decrease in PLA foci per cell against WT MCM5 [1] [fold]	Binder
binds	–	GST-MCM5 (natural protein, human, UniProt P33992 1-734, looked up, human MCM5 in pGEX-4T-1; the GST construct is probably the same insert; also called pGEX-4T-1 MCM5; WT GST-MCM5; source: E. coli BL21, purified (Glutathione-Sepharose 4B)) MSGFDDPGIFYSDSFGGDAQADEGQARKSQLQRRFKEFLRQYRVGTDRTGFTFKYRDELKRHYNLGEYWIEVEMEDLASFDEDLADYLYKQPAEHLQLLEEAAKEVADEVTRPRPSGEEVLQDIQVMLKSDASPSSIRSLKSDMMSHLVKIPGIIIAASAVRAKATRISIQCRSCRNTLTNIAMRPGLEGYALPRKCNTDQAGRPKCPLDPYFIMPDKCKCVDFQTLKLQELPDAVPHGEMPRHMQLYCDRYLCDKVVPGNRVTIMGIYSIKKFGLTTSRGRDRVGVGIRSSYIRVLGIQVDTDGSGRSFAGAVSPQEEEEFRRLAALPNVYEVISKSIAPSIFGGTDMKKAIACLLFGGSRKRLPDGLTRRGDINLLMLGDPGTAKSQLLKFVEKCSPIGVYTSGKGSSAAGLTASVMRDPSSRNFIMEGGAMVLADGGVVCIDEFDKMREDDRVAIHEAMEQQTISIAKAGITTTLNSRCSVLAAANSVFGRWDETKGEDNIDFMPTILSRFDMIFIVKDEHNEERDVMLAKHVITLHVSALTQTQAVEGEIDLAKLKKFIAYCRVKCGPRLSAEAAEKLKNRYIIMRSGARQHERDSDRRSSIPITVRQLEAIVRIAEALSKMKLQPFATEADVEEALRLFQVSTLDAALSGTLSGVEGFTSQEDQEMLSRIEKQLKRRFAIGSQVSEHSIIKDFTKQKYPEHAIHKVLQLMLRRGEIQHRMQRKVLYRLK
–	4	CDC45 (endogenous, HeLa) (natural protein, human (endogenous in HeLa), UniProt O75419 1-566, looked up, CDC45 (cell division cycle 45), endogenous in HeLa; also called cell division cycle 45; source: endogenous, HeLa (fixed cells for PLA; chromatin fraction)) MFVSDFRKEFYEVVQSQRVLLFVASDVDALCACKILQALFQCDHVQYTLVPVSGWQELETAFLEHKEQFHYFILINCGANVDLLDILQPDEDTIFFVCDTHRPVNVVNVYNDTQIKLLIKQDDDLEVPAYEDIFRDEEEDEEHSGNDSDGSEPSEKRTRLEEEIVEQTMRRRQRREWEARRRDILFDYEQYEYHGTSSAMVMFELAWMLSKDLNDMLWWAIVGLTDQWVQDKITQMKYVTDVGVLQRHVSRHNHRNEDEENTLSVDCTRISFEYDLRLVLYQHWSLHDSLCNTSYTAARFKLWSVHGQKRLQEFLADMGLPLKQVKQKFQAMDISLKENLREMIEESANKFGMKDMRVQTFSIHFGFKHKFLASDVVFATMSLMESPEKDGSGTDHFIQALDSLSRSNLDKLYHGLELAKKQLRATQQTIASCLCTNLVISQGPFLYCSLMEGTPDVMLFSRPASLSLLSKHLLKSFVCSTKNRRCKLLPLVMAAPLSMEHGTVTVVGIPPETDSSDRKNFFGRAFEKAAESTSSRMLHNHFDLSVIELKAEDRSKFLDALISLLS
